Target: T1, Human NKp30 (BKM0179) (human, UniProt O14931 19-135, limits assumed)
T1 sequence (looked up): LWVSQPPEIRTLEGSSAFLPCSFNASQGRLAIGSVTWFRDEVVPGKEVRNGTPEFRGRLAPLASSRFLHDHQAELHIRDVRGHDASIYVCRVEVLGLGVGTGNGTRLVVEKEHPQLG
Assay: SPR (BIAcore T200); human NKp30 BKM0179 captured on a CM5 chip via anti-mouse Fc, antibody construct injected at 3.9-125 nM; 1:1 model
Procedure: In this example, a series of exemplary anti-NKp30 antibody molecules were analyzed for their binding affinity for NKp30. Briefly, surface plasmon resonance (SPR) measurements were performed by using the BIAcore T200. Human NKp30 (BKM0179) was immobilized on a CM5 chip via anti-mouse Fc antibody to a response of 50 RU. […] The data was fit using a 1:1 binding model.

| Binder | Kd [nM] |
| --- | --- |
| BKM0138 (antibody, V domains shown, also called BJM0411 VL-N95A) VH: EIQLLESGGGLVQPGGSLRLSCAVSGFSITTTGYHWNWVRQAPGKGLEWVGYIYSSGSTSYNPSLKSRFTISRDTSKNTFYLQMNSLRAEDTAVYYCARGDWHYFDYWGQGTMVTVSS VL: DSVTTQSPLSLPVTLGQPASISCSGEKLSDKYVHWYQQRPGQSPRMLIYENDRRPSGVPDRFSGSNSGNDATLKISRVEAEDVGVYFCQFWDSTASAVFGGGTKVEIK | 3.2 |
| BKM0139 (antibody, V domains shown, also called BJM0411 VL-D92A) VH: EIQLLESGGGLVQPGGSLRLSCAVSGFSITTTGYHWNWVRQAPGKGLEWVGYIYSSGSTSYNPSLKSRFTISRDTSKNTFYLQMNSLRAEDTAVYYCARGDWHYFDYWGQGTMVTVSS VL: DSVTTQSPLSLPVTLGQPASISCSGEKLSDKYVHWYQQRPGQSPRMLIYENDRRPSGVPDRFSGSNSGNDATLKISRVEAEDVGVYFCQFWASTNSAVFGGGTKVEIK | 3.2 |
| BKM0142 (antibody, V domains shown, also called BJM0411 VH-N60A) VH: EIQLLESGGGLVQPGGSLRLSCAVSGFSITTTGYHWNWVRQAPGKGLEWVGYIYSSGSTSYAPSLKSRFTISRDTSKNTFYLQMNSLRAEDTAVYYCARGDWHYFDYWGQGTMVTVSS VL: DSVTTQSPLSLPVTLGQPASISCSGEKLSDKYVHWYQQRPGQSPRMLIYENDRRPSGVPDRFSGSNSGNDATLKISRVEAEDVGVYFCQFWDSTNSAVFGGGTKVEIK | 1.28 |
| BKM0144 (antibody, V domains shown, also called BJM0411 VH-N60A-VL-D92A-N95A) VH: EIQLLESGGGLVQPGGSLRLSCAVSGFSITTTGYHWNWVRQAPGKGLEWVGYIYSSGSTSYAPSLKSRFTISRDTSKNTFYLQMNSLRAEDTAVYYCARGDWHYFDYWGQGTMVTVSS VL: DSVTTQSPLSLPVTLGQPASISCSGEKLSDKYVHWYQQRPGQSPRMLIYENDRRPSGVPDRFSGSNSGNDATLKISRVEAEDVGVYFCQFWASTASAVFGGGTKVEIK | 6.4 |
| BKM0140 (antibody, V domains shown, also called BJM0407 VL-D92A) VH: EIQLLESGGGLVQPGGSLRLSCAVSGFSITTTGYHWNWVRQAPGKGLEWVGYIYSSGSTSYNPSLKSRFTISRDTSKNTFYLQMNSLRAEDTAVYYCARGDWHYFDYWGQGTMVTVSS VL: SSETTQPPSVSVSPGQTASITCSGEKLSDKYVHWYQQKPGQSPVMVIYENDRRPSGIPERFSGSNSGNTATLTISGTQAMDEADYFCQFWASTNSAVFGGGTQLTVL | 3.3 |
| BKM0141 (antibody, V domains shown, also called BJM0407 VL-N95A) VH: EIQLLESGGGLVQPGGSLRLSCAVSGFSITTTGYHWNWVRQAPGKGLEWVGYIYSSGSTSYNPSLKSRFTISRDTSKNTFYLQMNSLRAEDTAVYYCARGDWHYFDYWGQGTMVTVSS VL: SSETTQPPSVSVSPGQTASITCSGEKLSDKYVHWYQQKPGQSPVMVIYENDRRPSGIPERFSGSNSGNTATLTISGTQAMDEADYFCQFWDSTASAVFGGGTQLTVL | 3 |
| BKM0143 (antibody, V domains shown, also called BJM0407 VH-N60A) VH: EIQLLESGGGLVQPGGSLRLSCAVSGFSITTTGYHWNWVRQAPGKGLEWVGYIYSSGSTSYAPSLKSRFTISRDTSKNTFYLQMNSLRAEDTAVYYCARGDWHYFDYWGQGTMVTVSS VL: SSETTQPPSVSVSPGQTASITCSGEKLSDKYVHWYQQKPGQSPVMVIYENDRRPSGIPERFSGSNSGNTATLTISGTQAMDEADYFCQFWDSTNSAVFGGGTQLTVL | 1.45 |
| BKM0145 (antibody, V domains shown, also called BJM0407 VH-N60A-VL-D92A-N95A) VH: EIQLLESGGGLVQPGGSLRLSCAVSGFSITTTGYHWNWVRQAPGKGLEWVGYIYSSGSTSYAPSLKSRFTISRDTSKNTFYLQMNSLRAEDTAVYYCARGDWHYFDYWGQGTMVTVSS VL: SSETTQPPSVSVSPGQTASITCSGEKLSDKYVHWYQQKPGQSPVMVIYENDRRPSGIPERFSGSNSGNTATLTISGTQAMDEADYFCQFWASTASAVFGGGTQLTVL | 4.2 |
